{
  "source": "patent US6379938B1",
  "about": "“Epoxide hydrolase” (Puratos N.V., priority 1997, dated 2002)",
  "molecules": {"B1": {"name": "cis-epoxysuccinate hydrolase: 253 amino acid, 28 kDa epoxide hydrolase of Rhodococcus rhodochrous LMGP-18079, expressed in E. coli from plasmid pREHXS (protein)", "chain": "MQLNNANDNTQFRALLFDVQGTLTDFRSTLIEHGLSILGDRVDRELWEELVDQWRGCYRDELDSLVKQEKWRSVRAVYRDSLINLLAKFSDSFCATSAEVELLTDGWERLRSWPDVPSGLEQLRSKYLVAALTNADFSAIVNVGRSAKLQWDAVLSAQLFGAYKPHRSTYEGAATLLGIAPSEILMVASHAYDLEAAREVGAGTAYVRRPLEYGPTGRTEDVPDGRFDFLVDSISELADQLGCPRLGGTAGID"}},
  "key": {"[1]": {"assay": "Determination of the cis-epoxysuccinate-hydrolase activity (L-tartaric acid formed, HPLC)", "format": "biochemical", "details": "cells of Escherichia coli DH10B containing plasmid pREHXS, overnight culture; 37° C., pH 8.0; activity = amount of L(+)-tartaric acid formed in a day by 1 gram of dried cells", "procedure": "The enzymatic reaction is performed at 37° C. in a final volume of 9.3 ml that contains the following components: 0.7 ml of 0.1N Tris.HCl buffer pH 8.0, 2.6 ml of a 1.14% Triton X-100 solution, 5.0 ml of a 30% sodium cis-epoxysuccinate solution and 1.0 ml of the cell suspension. The reaction is stopped by diluting the mixture between 100 and 500 times with H2O acidified to pH 2.2 with H3PO4.\nThe amount of L-tartaric acid formed during the reaction is determined by HPLC at room temperature on a Vydac C18 column (cat no. 201HS3410) with a flow rate between 400 and 600 μl/min and a sample volume of 20 μl. The solvent is the same as the one used to dilute the samples. The detection of cis-epoxysuccinate and tartaric acid occurs at 210 nm.\nActivity is expressed as the amount of L(+)-tartaric acid formed in a day by 1 gram of dried cells.\nThe Escherichia coli strain DH10B containing the plasmid pREHXS is cultivated overnight in 2×LB medium (Yeast Extract 1%, Bacto-tryptone 2%, NaCl 2%) supplemented with 100 μg/ml of ampicillin. The same strain with the pBluescriptSK(+) plasmid without insert is used as a control.\nThe activity of the cis-epoxysuccinate hydrolase is determined in the cells collected from the two cultures using the protocol described in example 1. No activity could be detected in the control. About 150 units is present in the strain expressing the cis-epoxysuccinate gene."}, "[2]": {"assay": "pH activity profile of the epoxide hydrolase (FIG. 5)", "format": "biochemical", "details": "pH between 7.0 and 10 (FIG. 5)", "source_text": "The isolated and purified epoxide hydrolase amino acid sequence according to the invention is also characterised by an advantageous pH activity profile having a high enzymatic activity (more than 80% of the optimum enzyme activity) between 7.0 and 10, preferably between 7.5 and 9.5 (see FIG. 5).\nFIG. 5 represents the relative enzymatic activity of the enzyme according to the invention.\nThis enzymatic activity is advantageously maintained constant at a pH higher than 7, preferably at a pH comprised between 7.0 and 10, more preferably at a pH comprised between 7.5 and 9.5."}},
  "data": [
    {"molecule": "B1", "values": [
      {"measurement": "activity of the cis-epoxysuccinate hydrolase", "setting": "[1]", "value": "About 150 units"},
      {"measurement": "enzymatic activity relative to the optimum enzyme activity", "setting": "[2]", "value": "more than 80%"}
    ]}
  ]
}
